Laboratory results reported in the supplement of paper PMC9170038.

Assays:
MS2 coat protein [1] = test: apparent KD of MS2 coat protein, switch ON state; designed switch direction (-1 OFF switch, 1 ON switch): -1; higher = weaker reporter binding; details: FMN input: 0 or 200 uM; Eterna round: R93 (includes R88 designs)
How it was run: (§1)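 Binding of SNAP-549-labelled MS2 coat protein was measured on designed RNA switches transcribed on-chip from Illumina sequencing clusters. The protein rose in twofold steps from 0.7 or 1.5 nM to 3 µM, with 0.8–1.5 h per step early on and 10–20 min per step later, in 100 mM Tris-HCl pH 7.5, 80 mM KCl, 4 mM MgCl2, without or with constant ligand. Each design's apparent KD is the median of fits to its normalised cluster binding curves.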

MS2 coat protein [2] = test: apparent KD of MS2 coat protein, switch OFF state (with FMN for OFF switches, without FMN for ON switches); designed switch direction (-1 OFF switch, 1 ON switch): -1; higher = weaker reporter binding; details: FMN input: 0 or 200 uM; Eterna round: R93 (includes R88 designs)
How it was run: as §1

| Sequence | apparent KD of MS2 coat protein (MS2 coat protein [1]) [nM] | apparent KD of MS2 coat protein (MS2 coat protein [2]) [nM] |
| --- | --- | --- |
| AAGAGUAGAGGAUAUACAUGAGGAUCACCCAUGUAAUCCGGAUAAGGAAGCAUGUCGUGUAGAAGGCUGCAUGA [MOD 3 of Nando (MS2 Riboswitches- Exclusion 3)] | 15.5 | 14.1 |
| AGCUAGUGAGGAUAUACAAGAAUAUAAACGAACAUAAAGGGACAUGAGGAUCACCCAUGUAGAAGGCACUAGCA [Diamond 73] | 42.6 | 152 |
| GCUGGCCAAGGAUAUACAUGAGGAUCACCCAUGUGAGAGAAAAAAGUGAGAAAGAAAAGUAGAAGGUGGGUAGG [salish99-ex3-111] | 59 | 56.9 |
| AAAAAACAUGAGGAUCACCCAUGUGAGGAUAUACGAAAGUAGAAGGCACUAAAAAAAAAAAGAAGGAAAAAAAA [Meechl Ex1 R2 m0] | 24.2 | 42.4 |
| GAAAAACAUGAGGAUCACCCAUGUCAGGAUAUCGAAAAAAAUAAAAAAGAAAAGAAAACGAGAAGGGACAAAAA [May 12] | 28.2 | 45.6 |
| AAAAAGCGAGGAUAUACAUGAGGAUCACCCAUGUAAAAAAAAAGAGAUGAAACAUCAUGUAGAAGGCGCAAAAA [Excls3-I] | 131 | 67.1 |
| UAUACGUGAGGAUAUGCGAAUAACACGUUAGACAAAUAGACGCAGAAGGCACAUGAGGAUCACCCAUGUGAACC [JR_Exc004_Sub316] | 18.1 | 17 |
| GAUAGUGAAGGAUAUACUGGAGGAGUGCGAUAGAAGAAAGAACAUGAGGAUCACCCAUGUAGAAGGUCAGAAGU [JR_Exc002_Sub1225] | 32.3 | 27.2 |
| AAUAAAGGAGGAUAUACUAAAGAAAUGAAAAGAAAUAAAGAACAUGAGGAUCACCCAUGUAGAAGGCCUAAUAA [Yaqub-Har] | 31.3 | 22.8 |
| AAAAAGGUAGGAUAUACAUGAGGAUCACCCAUGUACAUAAAUGGAGAAAAAAACAGUUGUAGAAGGGCCAAAAA [Ex3 Malc#9] | 41.7 | 34.5 |
| AAGAUCAGAGGAUAUACAUAAGGUGAUGGAAACAUCGCCAAACAUGAGGAUCACCCAUGUAGAAGGCUGAUCAA [Mat - Exclusion 2 - JL mod - D61] | 35.7 | 43.7 |
| GAGGCUGAAGGAUAUACAAGGGCCUCACCGCCAAAACGGAAACAUGAGGAUCACCCAUGUAGAAGGUCAAUAAA [Reisvexe] | 57.1 | 77 |
| GAAGAACAUGAGGAUCACCCAUGUCAGGAUAUGAAUAACGGAAUAAUACGUUAUGGAAUCAGAAGGGACAAGAA [Ex 1 May 52] | 48.9 | 59.4 |
| AACUGACAUGAGGAUCACCCAUGUCAGGAUAUGCAUCUUAGGAAAAAAAAACUAAGAUGCAGAAGGGACAUGGG [Design 3: Super Stable 3] | 16.8 | 15.8 |
| AACAGGACAGGAUAUACAUGAGGAUCACCCAUGUGAGAAUUAAGUAGAUUACCACAGAGUAGAAGGGUCCUGGA [Ruby 96] | 47.7 | 99.5 |
| AACUGACAUGAGGAUCACCCAUGUCAGGAUAUGCUUCAUAAAAAAAAAAAAAAAUGAUGCAGAAGGGAUAUGGA [Design 36 :P Sub-opt 12] | 21.5 | 13.6 |
| AAAAAGAGAGGAUAUACAUGAGGAUCACCCAUGUAACAUUAAAUAAAUAAAAUAAAGUGUAGAAGGCUCAAAAA [65%, Moding Exclusion3-cac2, 24] | 27.9 | 34.3 |

| Sequence | apparent KD of MS2 coat protein (MS2 coat protein [1]) [nM] | apparent KD of MS2 coat protein (MS2 coat protein [2]) [nM] |
| --- | --- | --- |
| AGAAAGUCAGGAUAUACGAAAAAGAAAAAAGACGAGAACGGACAUGAGGAUCACCCAUGUAGAAGGGACAAGAA [Diamond 14] | 66.4 | 51.4 |
| ACAGUUAGAGGAUAUACGUGGAAAAAUAAAAAUAAAAAACUACAUGAGGAUCACCCAUGUAGAAGGCUAACUGA [Ex2 Design 196: Random 12E] | 24.8 | 66.1 |
| AAGAAGGUAGGAUAUACUAGGGCAACUAAUGCAAAGAUAGAACAUGAGGAUCACCCAUGUAGAAGGGCCAGAAA [JR_Exc002_Sub402] | 35.7 | 40.5 |
| AACUGGGCAGGAUAUACAUGAGGAUCACCCAUGUAAAGAAAAGAAAGGUCCGAGGAAAGUAGAAGGGCCUGGAA [Variant 5 of Mod 1 of Ex3 sub 3, by Tesla's Dusciple Round 1] | 40.6 | 38.9 |
| AAUAAGUGAGGAUAUGGAAAUAGUAGAUAAGAUACCCUAAACCAGAAGGCACAUGAGGAUCACCCAUGUAAAUA [JR_Exc004_Sub004] | 32.7 | 23.7 |
| AAGAAGUGAGGAUAUGCUGCUCGUCACAAAAGUGAUGAGUAGCAGAAGGCACAUGAGGAUCACCCAUGUAAAGA [JL eternac mod 1] | 40.6 | 48.8 |
| AAAAAACAUGAGGAUCACCCAUGUGAGGAUAUGCUAAAAAAAUCCGCAUGAAAAAAUAGCAGAAGGCACAUAAA [PK2] | 29.6 | 52.5 |
| AAAAAUGGAGGAUAUACAUGAGGAUCACCCAUGUGAAACAAAAAAAAAAACAAAAAAAGUAGAAGGCCAAAAAA [Gilly Gone Silly 2 - Jieux - Exclusion 3] | 36.7 | 53.6 |
| AGAUGACAUGAGGAUCACCCAUGUAAGGAUAUACGAGUAGGAGAAUAAAAUGAUAGAAGUAGAAGGUACGUAGA ['Exclusion 1' Lab (2)] | 68 | 58.1 |
| CAUUCACAUGAGGAUCACCCAUGUAAGGAUAUCGAAAUAAAACUAAUCAAUAAACAAACGAGAAGGUACAAAAA [Exclusion 1 design 9] | 26 | 21.2 |
| GGUUGGCGAGGAUAUACAUGAGGAUCACCCAUGUGAGUGAAAAAAGUGAGAAAGAAAAGUAGAAGGCGCUGACG [salish99-ex3-47] | 161 | 489 |
| CUCAAGUGAGGAUAUAUAAGAAAAGAAGAGAAAGAAAAGAAAUAGAAGGCACAUGAGGAUCACCCAUGUAAGAA [EteRNA is fun!] | 29.5 | 24.1 |
| AAAGCUGAAGGAUAUACUUGGAAAAAAAAAAAAAAAAAAAAACAUGAGGAUCACCCAUGUAGAAGGUCAGAUAA [Mat - Mod] | 41.1 | 36.7 |
| UAAAAACAUGAGGAUCACCCAUGUCAGGAUAUGUGCUCAGUGAAAAACUGAGUAACAAGCAGAAGGGACAAUAA [JR_Exc001_Sub202] | 23.6 | 31.4 |
| AGGAAACAUGAGGAUCACCCAUGUGAGGAUAUUGAAAAGAAAAGAAAAGAAAGAAGAACAAGAAGGUACAAGAA [Nyuserre Ini] | 22.3 | 27.3 |
| AAAAAGCUAGGAUAUACGAAAAAAAAGGGUAGAAAAAAAAAACAUGAGGAUCACCCAUGUAGAAGGAGCAAAAA [Mat - Exclusion 2 - Tesla mod - D34] | 51.5 | 103 |
| AACCAACAUGAGGAUCACCCAUGUCAGGAUAUGCAAACAACAAACAACAAACAACAAAGCAGAAGGGACAAAAA [Amethyst 82] | 17.8 | 19.5 |
